± gives the uncertainty stated by the source.
Assay: protein stability index of a GFP-peptide fusion (yeast GPS) (PSI 1-4); higher = more stable; sorted into four equal gates, so the index is relative within each strain
Conditions: ubr1∆
Outline: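 Plasmids in a pooled yeast library fused tiled 17-residue yeast protein peptides downstream of GFP and also expressed Cherry. Mid-log cultures grown without leucine were sorted into four equal gates by GFP/Cherry fluorescence ratio. Each gate's plasmids were PCR-amplified and Illumina-sequenced, and reads were matched to strains by barcodes. The protein stability index is derived by multiplying each gate's read frequency by its gate number and summing the results.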

Sequence | protein stability index
ESLYDLIEFQPSQGVHY [MED6] | 2.7 ± 0.051
ESMLHLSIWIKNYPEYF [IRR1] | 2.2 ± 0.043
ESMSYLPDPILKNFLSY [MCD1] | 2.51 ± 0.098
ESNRQSVIVDSKVTVPP [ESC2] | 2.81 ± 0.048
ESSFIEIDDTEAEVTAE [BRR2] | 3.06 ± 0.052
ESSLTISLYFNDILDEL [ECM29] | 2.4 ± 0.061
ESSYTEVTKLLKNEGID [SMC4] | 3.49 ± 0.098
ESTAGSASTSATGISGS [ECM29] | 3.277 ± 0.032
ESTETGYVIKVFNNGIV [DIS3] | 1.21 ± 0.24
ESWANQLTVCGAIIGWT [FAS2] | 1.44 ± 0.037
ESWFKALAGSEINWRHA [FAS1] | 2.59 ± 0.057
ETASFIPTKESLTRDFE [YIL149C/MLP2] | 2.72 ± 0.046
ETDHANTENNDPDIPMT [IRR1] | 2.68 ± 0.07
ETDNEMNGNGKPGIPRG [SIR3] | 2.99 ± 0.1
ETEAEEDHMLKKIENTM [RPO21] | 3.46 ± 0.15
ETELFEPGVLNTGDGSI [ECM29] | 3.07 ± 0.11
ETENSESIASSNTYKEE [MCD1] | 2.89 ± 0.074
ETFISSMTATADVLAMA [RIP1] | 1.44 ± 0.054
ETGNFSWASEGISKKTR [RPS8A] | 3.228 ± 0.025
ETISNVAKTAPNSNKTH [SNF2] | 3.07 ± 0.045
ETKADGILLETISVPQI [RRP6] | 2.26 ± 0.053
ETKVDELRYQSHILNSH [DSN1] | 3 ± 0.05
ETLKRDRKQSQATNATN [ARP7] | 2.74 ± 0.068
ETNAKPFSFSSATSTTE [YLR335W/NUP2] | 2.26 ± 0.035
ETPSRLLLSPDQWYCID [ITC1] | 2.81 ± 0.051

Sequence | protein stability index
ETQVEVEKNEIGKMYDE [NNF1] | 3.37 ± 0.13
EVAIRDVNLDVRIHSIQ [IRR1] | 1.68 ± 0.052
EVDEKPTETYSDVGGLD [RPT5] | 3.23 ± 0.059
EVFQLRIFVKEILEKCA [GAL11] | 2.12 ± 0.19
EVGDVCINELDNWNAPL [RPO31] | 3.25 ± 0.053
EVRGQVPVIESAGFETD [SNU114] | 1.86 ± 0.057
EVRRAAMLNLINDNNTR [YCG1] | 3.13 ± 0.1
EVSCKLLETITYVLNTW [YML103C/NUP188] | 2.11 ± 0.082
EVVQTGAKNIEITVVKP [PRE6] | 3.04 ± 0.087
EWDLYPQGFSSVERGRK [REC8] | 3.48 ± 0.12
EWFEQNNSEQDQEIVIQ [ISW2] | 3.25 ± 0.093
EWHSSLTLKEAELLVLK [PUP2] | 1.63 ± 0.25
EWNGKSFQKKSNDKVVE [ISW2] | 3.08 ± 0.064
EYADNDEDKFKKLKPIV [PRP28] | 2.64 ± 0.041
EYIIAAIRKAPHNSKSL [RPN3] | 2.68 ± 0.06
EYQVIGRRLPTESVPEP [RPL20A] | 3.15 ± 0.06
EYTINLHKRLHGVSFKK [RPL31A] | 1.61 ± 0.061
EYVYFFNNTSVIQDEVL [RPC40] | 2.55 ± 0.073
FAAAPNDTSSGTNAMLP [SNF5] | 2.89 ± 0.1
FAFWNLLVKFIKFFWNN [YLR018C/POM34] | 1.36 ± 0.24
FAGSNNQPHQSQTPSFN [YOR098C/NUP1] | 3.01 ± 0.031
FAKFIHHIHHFEKKELQ [IRR1] | 2.13 ± 0.056
FAVALKNEPDYSKAKYP [CDC53] | 2.34 ± 0.092
FDDRGDVKVIMATNKIE [RPT2] | 3.27 ± 0.12
FDDSSRIVNHKTKLWGF [LIN1] | 2.94 ± 0.055

Sequence | protein stability index
FDERIKFANQLHDEYLV [RPN3] | 1.36 ± 0.076
FDKIIKIREDHINKIPS [SRB8] | 2.81 ± 0.062
FDMTNHYNDSQQLRTWK [SRB8] | 2.9 ± 0.061
FDQAGKKVSRRNARAAR [RPL13B] | 3.29 ± 0.094
FDRLNGNDTISKFYNMK [SSN2] | 3.08 ± 0.059
FDSTAFNATVDETKGFD [MED2] | 3.21 ± 0.046
FDTSIKLDIISDPESER [RPN14] | 2.9 ± 0.068
FDVMIDEESLVKYMPEQ [RPO21] | 2.13 ± 0.058
FEDSMQFKKLTHAQRTG [PRP8] | 2.99 ± 0.085
FEHGRTPAEMSRPATTT [FAS2] | 2.79 ± 0.1
FEPASRLQGIKLLDNIQ [COR1] | 2.54 ± 0.046
FFAYFIGWCKEDPKRRA [YJL039C/NUP192] | 3.21 ± 0.066
FFMSERSSRLHIVYSLL [YML103C/NUP188] | 2.08 ± 0.053
FFPYYVHTIIAGLDEDG [PRE7] | 3.26 ± 0.095
FGAPNNPNSTAITADLG [YGL172W/NUP49] | 2.84 ± 0.087
FGEWAGMTKSNIYNFSP [BRR2] | 2.98 ± 0.052
FGGSQPNSGTATTGGFG [YGR119C/NUP57] | 3.4 ± 0.2
FGKLAFPTRLGQGYRKV [YJL039C/NUP192] | 1.62 ± 0.077
FGLGYGDVGKNHITEFP [RPC31] | 3.56 ± 0.12
FGRKKRKGGPATAEKLP [RPT2] | 3.34 ± 0.11
FGRKNDRQCMIMDELLS [DIB1] | 2.73 ± 0.034
FGWLLSDNSVSVRLQVT [IRR1] | 1.13 ± 0.13
FHKQQAHFWKPVLNLDK [RPL28] | 2.93 ± 0.052
FHVGFIAKIKKVCECVC [RPO21] | 1.26 ± 0.059
FIESIVVDFKNKENDNV [SNF12] | 3.03 ± 0.27

Sequence | protein stability index
FIKLQKIDIIELQKSLS [FAS1] | 2.28 ± 0.047
FIMASVGKYDKAIELLE [SRP72] | 3.1 ± 0.2
FIPHGLKRRQVIEQCYL [SRB8] | 2.44 ± 0.049
FIRLPHWPLNWYLILSI [RGR1] | 1.37 ± 0.062
FIRSTNSWFDVTWRTFT [FAS1] | 1.34 ± 0.15
FKPSQEPEFHALSQSSL [RRI1] | 2.42 ± 0.04
FKYLLGVTDLFRHFIGI [ISW2] | 1.3 ± 0.071
FLDSMAQKYASIVGVDL [FAS2] | 2.61 ± 0.035
FLDSVHKQGSSYVAVLG [POP7] | 2.51 ± 0.033
FLERFDFYTRHHFTCEI [ITC1] | 2.61 ± 0.11
FLGALKYLPHAILKLLE [PRP8] | 2.16 ± 0.039
FLKLYVLVKWTRTIKQN [RGR1] | 1.15 ± 0.091
FLQDKVQIKDVNDRYQI [CSI1] | 3.37 ± 0.21
FLSKPSKALYPDYYMII [SNF2] | 2.54 ± 0.035
FLTGQFASNKKINDESS [YML103C/NUP188] | 2.4 ± 0.052
FLWPFKLSNPSGGWGVP [RPL7A] | 3.36 ± 0.14
FNELCDPESRTQSYNNQ [POP1] | 2.96 ± 0.084
FNLLILSLNKRIYDREP [YCG1] | 2.33 ± 0.045
FNPQDTEENIKGETNSE [RRP45] | 3.12 ± 0.18
FNQRDGEHEKSNILLNS [MED1] | 3.21 ± 0.11
FNRLKKQAHEKLDASKK [YIL149C/MLP2] | 3.14 ± 0.082
FNYGKLPLPPSVEWMKV [SIN4] | 2.92 ± 0.064
FPKIDSLAQNDCNSALD [RPN5] | 2.93 ± 0.045
FPTDLEIFQLFTNPSVD [SWI1] | 2.35 ± 0.056
